Laboratory results from paper PMC5916938.
Where “and” joins values, the source holds several entries; their conditions need not be identical. Equal entries are not always repeated.

Molecular target: porcine brain tubulin (alpha/beta heterodimer), as paclitaxel-stabilised microtubule lattice (straight tubulin) or as curved tubulin protofilaments (porcine) (UniProt P02550)
Experiment: cryo-EM 2D class averages; CTNM AMP-PNP: 15 uM KLP10A NM with 3 uM polymerized tubulin in BRB80, 5 mM AMPPNP, 5 mM MgCl2, 20 uM paclitaxel, 5 min at room temperature; ring-like curved tubulin complexes not wrapped around microtubules, aligned and classified in 2D
Settings: scale: KLP10A motor domain per tubulin heterodimer

UniProt P02550, sequence (P02550 whole entry, chain 1 of 2): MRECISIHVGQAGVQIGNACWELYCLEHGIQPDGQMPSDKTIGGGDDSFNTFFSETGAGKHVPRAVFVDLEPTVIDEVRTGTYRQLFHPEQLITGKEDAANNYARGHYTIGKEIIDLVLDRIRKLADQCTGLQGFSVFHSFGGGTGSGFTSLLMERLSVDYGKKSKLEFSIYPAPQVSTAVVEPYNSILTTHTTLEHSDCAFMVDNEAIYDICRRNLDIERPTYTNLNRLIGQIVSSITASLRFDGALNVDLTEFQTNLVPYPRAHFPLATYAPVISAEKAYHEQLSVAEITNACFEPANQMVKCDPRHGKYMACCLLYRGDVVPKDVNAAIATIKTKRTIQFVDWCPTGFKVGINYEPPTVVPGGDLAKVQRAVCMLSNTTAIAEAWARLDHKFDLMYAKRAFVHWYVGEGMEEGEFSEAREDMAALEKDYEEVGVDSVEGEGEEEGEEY
UniProt P02550, sequence (P02554 1-439, chain 2 of 2, further chain): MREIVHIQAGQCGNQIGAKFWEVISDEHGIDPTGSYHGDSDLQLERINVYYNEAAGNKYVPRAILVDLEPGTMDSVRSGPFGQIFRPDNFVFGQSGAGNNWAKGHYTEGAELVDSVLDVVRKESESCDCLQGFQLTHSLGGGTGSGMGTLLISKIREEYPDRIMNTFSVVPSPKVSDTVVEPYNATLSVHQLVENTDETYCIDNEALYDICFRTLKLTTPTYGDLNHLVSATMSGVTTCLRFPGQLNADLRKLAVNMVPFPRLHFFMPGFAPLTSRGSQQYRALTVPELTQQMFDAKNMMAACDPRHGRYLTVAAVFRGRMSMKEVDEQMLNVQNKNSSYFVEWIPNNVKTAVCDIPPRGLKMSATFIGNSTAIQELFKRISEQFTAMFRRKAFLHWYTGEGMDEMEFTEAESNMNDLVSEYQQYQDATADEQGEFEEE

stoichiometry N: 1 and 0.5
Substance: Drosophila melanogaster kinesin-13 KLP10A neck motor construct (NM), residues 198-615 (from UniProt Q960Z0 198-615) (domain or fragment)
